Substrate in series [1]: C[S+](CC[C@H](N)C(=O)[O-])C[C@H]1O[C@@H](n2cnc3c(N)ncnc32)[C@H](O)[C@@H]1O
Briefly: Radiometric EZ-tip methyltransferase assay, steady-state kinetics, SUV39H2. Type of series: biochemical, H. sapiens. To be noted: other: SAM varied 0.1–100 μM, SUV39H2 25 nM, pH 7.9, 30 °C, 20 min, n = 3, SD.

Substrate in series [2]: C[S+](CC[C@H](N)C(=O)[O-])C[C@H]1O[C@@H](n2cnc3c(N)ncnc32)[C@H](O)[C@@H]1O
The series can be described thus: Radiometric EZ-tip methyltransferase assay, steady-state kinetics, EHMT1. Type of series: biochemical, H. sapiens. To be noted: other: SAM varied 0.1–100 μM, EHMT1 25 nM, pH 7.9, 30 °C, 20 min, n = 3, SD.

Substrate in series [3]: C[S+](CC[C@H](N)C(=O)[O-])C[C@H]1O[C@@H](n2cnc3c(N)ncnc32)[C@H](O)[C@@H]1O
The series can be described thus: Radiometric EZ-tip methyltransferase assay, steady-state kinetics, SUV39H1. Type of series: biochemical. To be noted: other: SAM varied 0.1–100 μM, SUV39H1 100 nM, pH 7.9, 30 °C, 20 min, n = 3, SD.

Substrate in series [4]: C[S+](CC[C@H](N)C(=O)[O-])C[C@H]1O[C@@H](n2cnc3c(N)ncnc32)[C@H](O)[C@@H]1O
Briefly: Radiometric EZ-tip methyltransferase assay, steady-state kinetics, EHMT2. To be noted: other: SAM varied 0.1–100 μM, EHMT2 25 nM, pH 7.9, 30 °C, 20 min, n = 3, SD. Type of series: biochemical, H. sapiens.

[5] abbreviates: fixed H3K9me1 peptide H3(1–17) 50 μM.
Setting [6] is: fixed H3K9me2 peptide H3(1–17) 50 μM.
[7] abbreviates: fixed H3K9un peptide H3(1–17) 50 μM.

B1: SUV39H2 catalytic domain (Homo sapiens) (protein)
chain: LEGPPSDFYYINEYKPAPGISLVNEATFGCSCTDCFFQKCCPAEAGVLLAYNKNQQIKIPPGTPIYECNSRCQCGPDCPNRIVQKGTQYSLCIFRTSNGRGWGVKTLVKIKRMSFVMEYVGEVITSEEAERRGQFYDNKGITYLFDLDYESDEFTVDAARYGNVSHFVNHSCDPNLQVFNVFIDNLDTRLPRIALFSTRTINAGEELTFDYQMKGSGDISSDSIDHSPAKKRVRTVCKCGAVTCRGYLN
notes: host or cells: Rosetta E. coli
B1: in series [1] (setting [5]), the Michaelis-Menten constant (Km) was found to be 9.85 ± 1.21 µM, the catalytic constant (kcat) was 0.059 ± 0.00383 s⁻¹ and the kcat/Km stood at 6000 ± 500 M⁻¹ s⁻¹. Further, in series [1] (setting [6]), the Km stood at 8.18 ± 3.14 µM, the kcat came out at 0.0703 ± 0.00583 s⁻¹ and the kcat/Km came to 9170 ± 2500 M⁻¹ s⁻¹. In addition, in series [1] (setting [7]), the Km stood at 4.70 ± 0.69 µM, the catalytic constant (kcat) amounted to 0.0668 ± 0.00567 s⁻¹ and the catalytic efficiency (kcat/Km) was 14300 ± 1330 M⁻¹ s⁻¹.

B2: EHMT1 catalytic domain (Homo sapiens) (protein)
chain: NSQVWSALQMSKALQDSAPDRPSPVERIVSRDIARGYERIPIPCVNAVDSEPCPSNYKYVSQNCVTSPMNIDRNITHLQYCVCIDDCSSSNCMCGQLSMRCWYDKDGRLLPEFNMAEPPLIFECNHACSCWRNCRNRVVQNGLRARLQLYRTRDMGWGVRSLQDIPPGTFVCEYVGELISDSEADVREEDSYLFDLDNKDGEVYCIDARFYGNVSRFINHHCEPNLVPVRVFMAHQDLRFPRIAFFSTRLIEAGEQLGFDYGERFWDIKGKLFSCRCGSPKCRHS
notes: EHMT1 = 982 to 1266; host or cells: Rosetta E. coli
Consider B2, for which the Km in series [2] (setting [5]) came to 6.84 ± 1.81 µM; in series [2] (setting [6]), 2.21 ± 0.65 µM; in series [2] (setting [7]) it was 13.51 ± 4.95 µM. Besides, the turnover number (kcat) in series [2] (setting [5]) turned out to be 0.0335 ± 0.0025 s⁻¹; in series [2] (setting [6]), 0.0112 ± 0.000333 s⁻¹; in series [2] (setting [7]), 0.211 ± 0.0108 s⁻¹. Besides, the kcat/Km in series [2] (setting [5]) was determined as 5000 ± 833 M⁻¹ s⁻¹; in series [2] (setting [6]), 5330 ± 1330 M⁻¹ s⁻¹; in series [2] (setting [7]), 16800 ± 4500 M⁻¹ s⁻¹.

B3: SUV39H1 (Homo sapiens) (protein)
chain: MAENLKGCSVCCKSSWNQLQDLCRLAKLSCPALGISKRNLYDFEVEYLCDYKKIREQEYYLVKWRGYPDSESTWEPRQNLKCVRILKQFHKDLERELLRRHHRSKTPRHLDPSLANYLVQKAKQRRALRRWEQELNAKRSHLGRITVENEVDLDGPPRAFVYINEYRVGEGITLNQVAVGCECQDCLWAPTGGCCPGASLHKFAYNDQGQVRLRAGLPIYECNSRCRCGYDCPNRVVQKGIRYDLCIFRTDDGRGWGVRTLEKIRKNSFVMEYVGEIITSEEAERRGQIYDRQGATYLFDLDYVEDVYTVDAAYYGNISHFVNHSCDPNLQVYNVFIDNLDERLPRIAFFATRTIRAGEELTFDYNMQVDPVDMESTRMDSNFGLAGLPGSPKKRVRIECKCGTESCRKYLF
notes: made in house; host or cells: Rosetta E. coli (plasmid generated for this study)
Take B3: in series [3] (setting [5]), the Michaelis-Menten constant (Km) worked out at 11.78 ± 3.85 µM, the kcat amounted to 0.005 ± 0.000833 s⁻¹ and the kcat/Km is 500 ± 167 M⁻¹ s⁻¹. Also, in series [3] (setting [6]), the Michaelis constant (Km) stood at 3.60 ± 1.72 µM, the kcat amounted to 0.0005 ± 0.000167 s⁻¹ and the kcat/Km is 167 ± 50 M⁻¹ s⁻¹. Moreover, in series [3] (setting [7]), the Km is 4.52 ± 0.49 µM, the kcat came out at 0.00717 ± 0.000667 s⁻¹ and the kcat/Km was 1670 ± 333 M⁻¹ s⁻¹.

B4: EHMT2 catalytic domain (Homo sapiens) (protein)
chain: NRAIRTEKIICRDVARGYENVPIPCVNGVDGEPCPEDYKYISENCETSTMNIDRNITHLQHCTCVDDCSSSNCLCGQLSIRCWYDKDGRLLQEFNKIEPPLIFECNQACSCWRNCKNRVVQSGIKVRLQLYRTAKMGWGVRALQTIPQGTFICEYVGELISDAEADVREDDSYLFDLDNKDGEVYCIDARYYGNISRFINHLCDPNIIPVRVFMLHQDLRFPRIAFFSSRDIRTGEELGFDYGDRFWDIKSKYFTCQCGSEKCKHSAEAIALEQSRLARLD
notes: EHMT2 = 913 to 1193; made in house; host or cells: Rosetta E. coli (plasmid from the laboratory of Peter W. Lewis)
On to B4, for which, in series [4] (setting [5]), the Km worked out at 16.80 ± 2.69 µM, the kcat came to 0.0358 ± 0.00383 s⁻¹ and the specificity constant (kcat/Km) was 2170 ± 167 M⁻¹ s⁻¹. Moreover, in series [4] (setting [6]), the Michaelis constant (Km) stood at 6.10 ± 1.0 µM, the turnover number (kcat) is 0.0175 ± 0.00117 s⁻¹ and the kcat/Km turned out to be 2830 ± 500 M⁻¹ s⁻¹. Further, in series [4] (setting [7]), the Km is 19.21 ± 2.00 µM, the kcat worked out at 0.127 ± 0.00183 s⁻¹ and the kcat/Km was found to be 6670 ± 667 M⁻¹ s⁻¹.

These data come from PMC10404681, “Intrinsic catalytic properties of histone H3 lysine-9 methyltransferases preserve monomethylation levels under low S-adenosylmethionine” (The Journal of Biological Chemistry, 2023).
